Laboratory results taken from FireProtDB (doi:10.1021/bi801431x).
Values joined by “and” are separate entries in the source; they are usually repeats but may differ in a detail not shown here. Identical values can stand only once.

B1: Aspartate aminotransferase, P00509 (parent)
chain: MFENITAAPADPILGLADLFRADERPGKINLGIGVYKDETGKTPVLTSVKKAEQYLLENETTKNYLGIDGIPEFGRCTQELLFGKGSALINDKRARTAQTPGGTGALRVAADFLAKNTSVKRVWVSNPSWPNHKSVFNSAGLEVREYAYYDAENHTLDFDALINSLNEAQAGDVVLFHGCCHNPTGIDPTLEQWQTLAQLSVEKGWLPLFDFAYQGFARGLEEDAEGLRAFAAMHKELIVASSYSKNFGLYNERVGACTLVAADSETVDRAFSQMKAAIRANYSNPPAHGASVVATILSNDALRAIWEQELTDMRQRIQRMRQLFVNTLQEKGANRDFSFIIKQNGMFSFSGLTKEQVLRLREEFGVYAVASGRVNVAGMTPDNMAPLCEAIVAVL

Variants of: B1
Conditions: Escherichia coli (strain K12); pH 7.5; 25 °C; Urea; Fluorescence; Potassium phosphate 20 mM; reversible: Yes; structure 1AMQ; whole UniProt chain shown

Variant | ddG of mutation (higher = less stable) | denaturant midpoint (higher = more stable)
MFENITAAPADPILGLADLFRADERPGKINLGIGVYKDETGKTPVLTSVKKAEQYLLENETTKNYLGIDGIPEFGRCTQELLFGKGSALINDKRARTAQTPGGTGALRVAADFLAKNTSVKRVWVSNPSWPNHKSVFNSAGLEVREYAYYDAENHTLDFDALINSLNEAQAGDVVLFHGCCHNPTGIDPTLEQWQTLAQLSVEKGWLPLFDFAYQGFARGLEEDAEGLRAFAAMHKELIVASSYSKNFGLYNEMVGACTLVAADSETVDRAFSQMKAAIRANYSNPPAHGASVVATILSNDALRAIWEQELTDMRQRIQRMRQLFVNTLQEKGANRDFSFIIKQNGMFSFSGLTKEQVLRLREEFGVYAVASGRVNVAGMTPDNMAPLCEAIVAVL [R254M] | 3.8 kcal/mol and 3.4 kcal/mol | 3.06 M and 3.12 M and 5.19 M
MFENITAAPADPILGLADLFRADERPGKINLGIGVYKDETGKTPVLTSVKKAEQYLLENETTENYLGIDGIPEFGRCTQELLFGKGSALINDKRARTAQTPGGTGALRVAADFLAKNTSVKRVWVSNPSWPNHKSVFNSAGLEVREYAYYDAENHTLDFDALINSLNEAQAGDVVLFHGCCHNPTGIDPTLEQWQTLAQLSVEKGWLPLFDFAYQGFARGLEEDAEGLRAFAAMHKELIVASSYSKNFGLYNERVGACTLVAADSETVDRAFSQMKAAIRANYSNPPAHGASVVATILSNDALRAIWEQELTDMRQRIQRMRQLFVNTLQEKGANRDFSFIIKQNGMFSFSGLTKEQVLRLREEFGVYAVASGRVNVAGMTPDNMAPLCEAIVAVL [K63E] | 4.5 kcal/mol | 2.93 M and 3.9 M and 5.01 M
MFENITAAPADPILGLADLFRADERPGKINLGIGVYKDETGKTPVLTSVKKAEQYLLENETTKNYLGIDGIPEFGRCTQELLFGKGSALINDKRARTAQTPGGTGALRVAADFLAKNTSVKRVWVSNPSWPNHKSVFNSAGLEVREYAYYDAENHTLDFDALINSLNEAQAGDVVLFHGCCHNPTGIDPTLEQWQTLAQLSVEKGWLPLFDFAYQGFARGLEEDAEGLRAFAAMHKELIVASSYSKNFGLYNKRVGACTLVAADSETVDRAFSQMKAAIRANYSNPPAHGASVVATILSNDALRAIWEQELTDMRQRIQRMRQLFVNTLQEKGANRDFSFIIKQNGMFSFSGLTKEQVLRLREEFGVYAVASGRVNVAGMTPDNMAPLCEAIVAVL [E253K] | 7.6 kcal/mol and 7.1 kcal/mol | 
MFENITAAPADPILGLADLFRADERPGKINLGIGVYKDETGKTPVLTSVKKAEQYLLENETTMNYLGIDGIPEFGRCTQELLFGKGSALINDKRARTAQTPGGTGALRVAADFLAKNTSVKRVWVSNPSWPNHKSVFNSAGLEVREYAYYDAENHTLDFDALINSLNEAQAGDVVLFHGCCHNPTGIDPTLEQWQTLAQLSVEKGWLPLFDFAYQGFARGLEEDAEGLRAFAAMHKELIVASSYSKNFGLYNERVGACTLVAADSETVDRAFSQMKAAIRANYSNPPAHGASVVATILSNDALRAIWEQELTDMRQRIQRMRQLFVNTLQEKGANRDFSFIIKQNGMFSFSGLTKEQVLRLREEFGVYAVASGRVNVAGMTPDNMAPLCEAIVAVL [K63M] | 5.4 kcal/mol and 4.7 kcal/mol | 2.71 M and 2.81 M and 4.29 M
MAENITAAPADPILGLADLFRADERPGKINLGIGVYKDETGKTPVLTSVKKAEQYLLENETTKNYLGIDGIPEFGRCTQELLFGKGSALINDKRARTAQTPGGTGALRVAADFLAKNTSVKRVWVSNPSWPNHKSVFNSAGLEVREYAYYDAENHTLDFDALINSLNEAQAGDVVLFHGCCHNPTGIDPTLEQWQTLAQLSVEKGWLPLFDFAYQGFARGLEEDAEGLRAFAAMHKELIVASSYSKNFGLYNERVGACTLVAADSETVDRAFSQMKAAIRANYSNPPAHGASVVATILSNDALRAIWEQELTDMRQRIQRMRQLFVNTLQEKGANRDFSFIIKQNGMFSFSGLTKEQVLRLREEFGVYAVASGRVNVAGMTPDNMAPLCEAIVAVL [F2A] | 7.3 kcal/mol and 7.4 kcal/mol | 2.28 M and 4.26 M and 5.09 M
MFENITAAPAAPILGLADLFRADERPGKINLGIGVYKDETGKTPVLTSVKKAEQYLLENETTKNYLGIDGIPEFGRCTQELLFGKGSALINDKRARTAQTPGGTGALRVAADFLAKNTSVKRVWVSNPSWPNHKSVFNSAGLEVREYAYYDAENHTLDFDALINSLNEAQAGDVVLFHGCCHNPTGIDPTLEQWQTLAQLSVEKGWLPLFDFAYQGFARGLEEDAEGLRAFAAMHKELIVASSYSKNFGLYNERVGACTLVAADSETVDRAFSQMKAAIRANYSNPPAHGASVVATILSNDALRAIWEQELTDMRQRIQRMRQLFVNTLQEKGANRDFSFIIKQNGMFSFSGLTKEQVLRLREEFGVYAVASGRVNVAGMTPDNMAPLCEAIVAVL [D11A] | 5.9 kcal/mol and 5.1 kcal/mol | 
MFANITAAPADPILGLADLFRADERPGKINLGIGVYKDETGKTPVLTSVKKAEQYLLENETTKNYLGIDGIPEFGRCTQELLFGKGSALINDKRARTAQTPGGTGALRVAADFLAKNTSVKRVWVSNPSWPNHKSVFNSAGLEVREYAYYDAENHTLDFDALINSLNEAQAGDVVLFHGCCHNPTGIDPTLEQWQTLAQLSVEKGWLPLFDFAYQGFARGLEEDAEGLRAFAAMHKELIVASSYSKNFGLYNERVGACTLVAADSETVDRAFSQMKAAIRANYSNPPAHGASVVATILSNDALRAIWEQELTDMRQRIQRMRQLFVNTLQEKGANRDFSFIIKQNGMFSFSGLTKEQVLRLREEFGVYAVASGRVNVAGMTPDNMAPLCEAIVAVL [E3A] | 3.8 kcal/mol and 3 kcal/mol | 
MFENITAAPADPILGLADLFRADERPGKINLGIGVYKDETGKTPVLTSVKKAEQYLLENETTKNYLGIDGIPEFGRCTQELLFGKGSALINDKRARTAQTPGGTGALRVAADFLAKNTSVKRVWVSNPSWPNHKSVFNSAGLEVREYAYYDAENHTLDFDALINSLNEAQAGDVVLFHGCCHNPTGIDPTLEQWQTLAQLSVEKGWLPLFDFAYQGFARGLEEDAEGLRAFAAMHKELIVASSYSKNFGLYNERVGACTLVAADSETVDRAFSQMKAAIRANYSRPPAHGASVVATILSNDALRAIWEQELTDMRQRIQRMRQLFVNTLQEKGANRDFSFIIKQNGMFSFSGLTKEQVLRLREEFGVYAVASGRVNVAGMTPDNMAPLCEAIVAVL [N285R] | 4.4 kcal/mol and 5.9 kcal/mol | 2.91 M and 2.66 M and 4.24 M
